Our source for the EC50 values is PMC9663165, “Human immunomodulatory ligand B7-1 mediates synaptic remodeling via the p75 neurotrophin receptor” (The Journal of Clinical Investigation, 2022).

Numbering of substitutions follows the chain as printed. Names and notes keep the numbering of the source.

In test [1] the target is T1, B7-1–hIgG1 biotin (human, UniProt P33681 35-233, biotin on the AVI tag).
T1 construct: human B7-1 (CD80) ectodomain, residues 35-233; also called recombinant biotinylated B7-1–Fc protein; B7-1–Fc biotin; source: Expi293 cells stably expressing BirA, transiently transfected, purified; not shown: Fc (human IgG1), C-terminal, kept; AVI tag, C-terminal, kept
T1 sequence (looked up): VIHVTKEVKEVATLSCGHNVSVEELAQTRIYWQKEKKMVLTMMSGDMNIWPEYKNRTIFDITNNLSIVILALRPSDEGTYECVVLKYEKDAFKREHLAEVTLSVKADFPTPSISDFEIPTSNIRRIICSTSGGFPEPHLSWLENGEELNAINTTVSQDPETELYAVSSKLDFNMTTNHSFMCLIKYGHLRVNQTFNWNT
Briefly: flow cytometry on protein-coated beads; p75NTR-mIgG2a or CTLA-4–mIgG2a titrated (0 to 100 nM, 30 min) onto streptavidin beads coated with B7-1–hIgG1 biotin; detected with anti-mIgG2a; PBS 0.2% BSA pH 7.4; Hill fit; dimeric fusion proteins. The note with it: both partners purified.

Test [2] addresses T2, CTLA-4 on cells (Figure S6) ( (human or mouse cDNA cloned), UniProt P16410 36-223).
T2 construct: CTLA-4; Probably a C-terminal GFP fusion in HEK293F cells as in the other experiments; also called CTLA-4 Expressing Cells; CTLA-4 cells
Briefly: flow cytometry on cells; recombinant B7-1-Fc or B7-1N82E-Fc titrated (up to 1.2 uM) onto cells expressing CTLA-4, CD28 or p75NTR; detected with an anti-mouse 647 labelled antibody; EC50 calculated. The note with it: one partner purified.

Test [3] deals with T3, human p75 neurotrophin receptor-GFP (human, UniProt P08138 29-427).
T3 construct: also called p75NTR; NGFR; source: HEK293F, transiently transfected, on cells; not shown: GFP, C-terminal, kept
T3 sequence (looked up): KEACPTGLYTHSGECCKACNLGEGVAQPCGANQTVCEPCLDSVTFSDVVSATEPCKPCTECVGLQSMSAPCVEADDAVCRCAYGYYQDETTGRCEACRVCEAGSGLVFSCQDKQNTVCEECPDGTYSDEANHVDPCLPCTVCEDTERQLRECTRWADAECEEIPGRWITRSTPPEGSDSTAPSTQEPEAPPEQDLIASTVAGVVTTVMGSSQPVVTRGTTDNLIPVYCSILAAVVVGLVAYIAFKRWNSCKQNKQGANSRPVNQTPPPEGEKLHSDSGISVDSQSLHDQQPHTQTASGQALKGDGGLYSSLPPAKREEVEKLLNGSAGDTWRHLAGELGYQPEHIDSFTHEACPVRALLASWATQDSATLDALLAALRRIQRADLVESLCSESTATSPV
The test is described as above. The note with it: one partner purified.

Test [4] addresses T4, CD28 on cells (Figure S6) ( (human or mouse cDNA cloned), UniProt P10747 19-220).
T4 construct: CD28; Probably a C-terminal GFP fusion in HEK293F cells as in the other experiments; also called CD28 Expressing Cells; CD28 cells
The test is described as above. The note with it: one partner purified.

T2 sequence (P16410 36-223): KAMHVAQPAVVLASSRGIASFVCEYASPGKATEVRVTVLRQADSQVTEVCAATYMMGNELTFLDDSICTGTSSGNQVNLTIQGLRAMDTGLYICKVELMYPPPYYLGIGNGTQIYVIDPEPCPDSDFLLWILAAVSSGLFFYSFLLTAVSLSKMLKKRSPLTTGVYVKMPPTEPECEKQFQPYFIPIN

B1: p75^NTR-mIgG2A (Fc fusion, UniProt P08138 29-250, looked up)
chain: KEACPTGLYTHSGECCKACNLGEGVAQPCGANQTVCEPCLDSVTFSDVVSATEPCKPCTECVGLQSMSAPCVEADDAVCRCAYGYYQDETTGRCEACRVCEAGSGLVFSCQDKQNTVCEECPDGTYSDEANHVDPCLPCTVCEDTERQLRECTRWADAECEEIPGRWITRSTPPEGSDSTAPSTQEPEAPPEQDLIASTVAGVVTTVMGSSQPVVTRGTTDN
notes: p75NTR (NGFR) full-length ectodomain; also called p75^NTR-Fc; source: Expi293 suspension cells, transiently transfected, purified; not shown: Fc (mouse IgG2a), C-terminal, kept
Turning to B1, the EC50 (as a rule, the concentration at which the effect is half-maximal) in test [1] stood at 16 nM.

B2: hB7-1-mIgG2A (Fc fusion, human, UniProt P33681 35-233, looked up)
chain: T1 sequence (looked up)
notes: B7-1 (CD80), human, ectodomain residues 35-233; also called B7-1-Fc; WT B7-1-Fc; source: Expi293, transiently expressed, purified (Ni2+ His60 resin, S200 gel filtration); not shown: Fc (mouse IgG2a), C-terminal, kept
Turning to B2, the 50% effective concentration (EC50) in test [2] was 0.69 nM; in test [3], 285 nM; in test [4], 9.7 nM.

B3: hB7-1N82E-mIgG2A (Fc fusion, human, UniProt P33681 35-233, looked up)
chain: T1 sequence (looked up) with N48E
notes: B7-1 (CD80), human, ectodomain residues 35-233 with N82E; also called B7-1N82E-Fc; source: Expi293, transiently expressed, purified (Ni2+ His60 resin, S200 gel filtration); not shown: Fc (mouse IgG2a), C-terminal, kept
With B3, the 50% effective concentration (EC50) in test [2] is 9.2 nM; in test [4] it was 10.3 nM.
